Measurements: paper PMC10715180

Assays:
Assay in all cases: EMSA
Conditions in all cases: […] (binding temperature not stated)
[1] = target: PhoP (PhoPmas) WT, unphosphorylated (Mycobacterium abscessus subsp. massiliense CIP108297 (Mmas; subspecies name implied?)) (UniProt B1MHU9)
[2] = target: PhoP K224A K224A (Mycobacterium abscessus subsp. massiliense CIP108297 (Mmas; subspecies name implied?)) (UniProt B1MHU9)
[3] = target: PhoP D71N D71N (Mycobacterium abscessus subsp. massiliense CIP108297 (Mmas; subspecies name implied?)) (UniProt B1MHU9)

Sequence: AGGTAATCTTCCCCCCAAAATTTACGATGCGCTGGATCTTCACTGTGAGCTTCCTGTGAGTTACTCACAGCAGATTGTCAGCCAACCGCGCCAGGTCGCCCTACAGTTGAGCC (double strand) [phoP promoter probe WT]
- binding [1]: binds
- binding [2]: no binding
- binding [3]: binds more weakly
